In article PMC5605508:

Tests used:
[1] = molecular target: SSBΔC8 (Escherichia coli) (UniProt P0AGE0); assay: EMSA; conditions: Buffer 1: 25 mM Tris-HCl, 10 mM Mg acetate, 3 mM K glutamate, pH 7.5, room temperature (TPM: 2 uM RecA, 2 mM ATP, 1 mM DTT, 1 mg/mL BSA); buffer 2: 10 mM Tris …
[2] = molecular target: wtSSB (Escherichia coli) (UniProt P0AGE0); assay: EMSA; conditions: Buffer 1: 25 mM Tris-HCl, 10 mM Mg acetate, 3 mM K glutamate, pH 7.5, room temperature (TPM: 2 uM RecA, 2 mM ATP, 1 mM DTT, 1 mg/mL BSA); buffer 2: 10 mM Tris …
[3] = molecular target: SSBΔC8 (Escherichia coli) (UniProt P0AGE0); assay: SPR; conditions: 10 mM Mg acetate, 3 mM K glutamate, pH 7.5, room temperature (TPM: 2 uM RecA, 2 mM ATP, 1 mM DTT, 1 mg/mL BSA)
[4] = molecular target: wtSSB (Escherichia coli) (UniProt P0AGE0); assay: SPR; conditions: 10 mM Mg acetate, 3 mM K glutamate, pH 7.5, room temperature (TPM: 2 uM RecA, 2 mM ATP, 1 mM DTT, 1 mg/mL BSA)
[5] = buffer 1, 0.005% Tween-20, Buffer 1: 25 mM Tris-HCl, buffer 2: 10 mM Tris …
[6] = buffer 2 (10 mM Tris, 0.1 mM Na3EDTA, pH 8.1), 0.005% Tween-20, Buffer 1: 25 mM Tris-HCl

Substance	Kd [1]	Kd [2]	Kd [3, 5]	Kd [3, 6]	Kd [4, 5]	Kd [4, 6]
55 nt ssDNA overhang (EMSA)	13.9 nM	4.04 nM				
55 nt ssDNA overhang (SPR)			4.7 nM	89.1 nM	24 nM	145 nM
